Values belong to the binder of their own block, whether it stands above or below them.
Key:
Test in all cases: cell-based or functional assay
[1] = molecular target: T1, hu-IL-36β (human)
T1 chain: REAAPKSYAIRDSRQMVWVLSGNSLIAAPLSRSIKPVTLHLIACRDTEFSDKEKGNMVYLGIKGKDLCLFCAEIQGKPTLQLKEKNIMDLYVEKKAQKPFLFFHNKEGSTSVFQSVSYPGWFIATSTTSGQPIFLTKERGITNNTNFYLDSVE

[2] = molecular target: T2, hu-IL-36α (human, UniProt Q9UHA7 6-158)
T2 sequence: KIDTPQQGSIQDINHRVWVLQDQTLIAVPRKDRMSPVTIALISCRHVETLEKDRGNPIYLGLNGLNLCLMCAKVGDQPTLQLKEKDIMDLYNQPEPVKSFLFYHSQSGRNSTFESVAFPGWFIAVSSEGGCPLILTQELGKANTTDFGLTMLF

[3] = molecular target: T3, hu-IL-36γ (human, UniProt Q9NZH8 18-169)
T3 sequence: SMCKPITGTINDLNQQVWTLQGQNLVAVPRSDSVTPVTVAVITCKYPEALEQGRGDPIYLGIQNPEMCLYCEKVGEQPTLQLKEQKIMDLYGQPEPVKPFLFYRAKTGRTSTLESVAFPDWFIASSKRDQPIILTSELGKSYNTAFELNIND

[4] = molecular target: T2, hu-IL-36α; remark: listed apart in the source
[5] = molecular target: T3, hu-IL-36γ; remark: listed apart in the source
[6] = molecular target: T1, hu-IL-36β
[7] = molecular target: T1, hu-IL-36β

- % Inhibition, HEK Blue SEAP reporter assay [1]: 85%
B1: mAb8.0 Fab (Fab, V domains shown)
VH: QVQLVQSGAEVKKPGSSVKVSCKASGGTFSNYAISWVRQAPGQGLEWMGGILPILGTVDYAQKFQGRVTITADESTSTAYMELSSLRSEDTAVYYCAREPWYRLGAFDVWGQGTLVTVSS
VL: DIQMTQSPSSLSASVGDRVTITCRASQTIYKYLNWYQQKPGKAPKLLIYAASSLQSGVPSRFSGSGSGTDFTLTISSLQPEDFATYYCQQYSSIPYTFGQGTKVEIK

- % Inhibition, HEK Blue SEAP reporter assay [2]: 70%
- % Inhibition, HEK Blue SEAP reporter assay [3]: 31%
B2: mAb1.0 Fab (Fab, V domains shown)
VH: QVQLVESGGGVVQPGRSLRLSCAASGFSFSAYAMHWVRQAPGKGLEWVAVISYDGTNEYYADSVKGRFTISRDNSKNTLYLQMNSLRAEDTAVYYCARGIRIFTSYFDSWGQGTLVTVSS
VL: QSVLTQPPSVSGAPGQRVTISCTGSSSNIGAHYDVHWYQQLPGTAPKLLIYSNNNRPSGVPDRFSGSKSGTSASLAITGLQAEDEADYYCQSYDYSLRGYVFGGGTKLTVL

- % Inhibition, HEK Blue SEAP reporter assay [2]: 91%
- % Inhibition, HEK Blue SEAP reporter assay [3]: 57%
B3: mAb4.0 Fab (Fab, V domains shown)
VH: QLQLQESGPGLVKPSETLSLTCTVSGGSIGSRSYYWGWIRQPPGKGLEWIGSIHYSGTTYYNPSLKSRVTISVDTSKNQFSLKLSSVTAADTAVYYCARVAPSYPRVFDYWGQGTLVTVSS
VL: QSVLTQPPSVSGAPGQRVTISCTGSSSNIGAGYDVHWYQQLPGTAPKLLIYGNRNRPSGVPDRFSGSKSGTSASLAITGLQAEDEADYYCQSYDYSLRVYVFGGGTKLTVL

- IC50, HEK Blue SEAP reporter assay [4]: 90 nM
- IC50, HEK Blue SEAP reporter assay [5]: 30 nM
B4: mAb3.0 IgG (antibody, V domains shown)
VH: QLQLQESGPGLVKPSETLSLTCTVSGGSISSTSYYWGWIRQPPGKGLEWIGSIHYSGNTYYNPSLKSRVTISVDTSKNQFSLKLSSVTAADTAVYYCARVHYGGYIPRRFDHWGQGTLVTVSS
VL: QSVLTQPPSVSGAPGQRVTISCTGSSSNIGAGYDVHWYQQLPGTAPKLLIYGNTNRPSGVPDRFSGSKSGTSASLAITGLQAEDEADYYCQSYDYSLRGYVFGGGTKLTVL

- % Inhibition, HEK Blue SEAP reporter assay [2]: 40%
- % Inhibition, HEK Blue SEAP reporter assay [3]: 64%
B5: mAb3.0 Fab (Fab, V domains shown)
VH: QLQLQESGPGLVKPSETLSLTCTVSGGSISSTSYYWGWIRQPPGKGLEWIGSIHYSGNTYYNPSLKSRVTISVDTSKNQFSLKLSSVTAADTAVYYCARVHYGGYIPRRFDHWGQGTLVTVSS
VL: QSVLTQPPSVSGAPGQRVTISCTGSSSNIGAGYDVHWYQQLPGTAPKLLIYGNTNRPSGVPDRFSGSKSGTSASLAITGLQAEDEADYYCQSYDYSLRGYVFGGGTKLTVL

- IC50, HEK Blue SEAP reporter assay [4]: 43 nM
- IC50, HEK Blue SEAP reporter assay [5]: 5.3 nM
B6: mAb1.0 IgG (antibody, V domains shown)
VH: QVQLVESGGGVVQPGRSLRLSCAASGFSFSAYAMHWVRQAPGKGLEWVAVISYDGTNEYYADSVKGRFTISRDNSKNTLYLQMNSLRAEDTAVYYCARGIRIFTSYFDSWGQGTLVTVSS
VL: QSVLTQPPSVSGAPGQRVTISCTGSSSNIGAHYDVHWYQQLPGTAPKLLIYSNNNRPSGVPDRFSGSKSGTSASLAITGLQAEDEADYYCQSYDYSLRGYVFGGGTKLTVL

- % Inhibition, HEK Blue SEAP reporter assay [2]: 75%
- % Inhibition, HEK Blue SEAP reporter assay [3]: 75%
B7: mAb5.0 Fab (Fab, V domains shown)
VH: EVQLLESGGGLVQPGGSLRLSCAASGFTFSTYAMSWVRQAPGKGLEWVSGISGGSGYTYYADSVKGRFTISRDNSKNTLYLQMNSLRAEDTAVYYCARVVTYRDPPASFDYWGQGTLVTVSS
VL: QSVLTQPPSVSGAPGQRVTISCTGSSSNIGAHYDVHWYQQLPGTAPKLLIYGNDNRPSGVPDRFSGSKSGTSASLAITGLQAEDEADYYCQSYDYSLKAYVFGGGTKLTVL

- IC50, HEK Blue SEAP reporter assay [4]: 16 nM
- IC50, HEK Blue SEAP reporter assay [5]: 52 nM
B8: mAb4.0 IgG (antibody, V domains shown)
VH: QLQLQESGPGLVKPSETLSLTCTVSGGSIGSRSYYWGWIRQPPGKGLEWIGSIHYSGTTYYNPSLKSRVTISVDTSKNQFSLKLSSVTAADTAVYYCARVAPSYPRVFDYWGQGTLVTVSS
VL: QSVLTQPPSVSGAPGQRVTISCTGSSSNIGAGYDVHWYQQLPGTAPKLLIYGNRNRPSGVPDRFSGSKSGTSASLAITGLQAEDEADYYCQSYDYSLRVYVFGGGTKLTVL

- IC50, HEK Blue SEAP reporter assay [4]: 95 nM
- IC50, HEK Blue SEAP reporter assay [5]: 142 nM
B9: mAb5.0 IgG (antibody, V domains shown)
VH: EVQLLESGGGLVQPGGSLRLSCAASGFTFSTYAMSWVRQAPGKGLEWVSGISGGSGYTYYADSVKGRFTISRDNSKNTLYLQMNSLRAEDTAVYYCARVVTYRDPPASFDYWGQGTLVTVSS
VL: QSVLTQPPSVSGAPGQRVTISCTGSSSNIGAHYDVHWYQQLPGTAPKLLIYGNDNRPSGVPDRFSGSKSGTSASLAITGLQAEDEADYYCQSYDYSLKAYVFGGGTKLTVL

- % Inhibition, HEK Blue SEAP reporter assay [1]: 86%
B10: mAb6.0 Fab (Fab, V domains shown)
VH: QLQLQESGPGLVKPSETLSLTCTVSGGSITSSNYYWGWIRQPPGKGLEWIGSIDYTGSTYYNPSLKSRVTISVDTSKNQFSLKLSSVTAADTAVYYCARGKYYETYLGFDVWGQGTLVTVSS
VL: QSVLTQPPSVSGAPGQRVTISCTGSSSNIGAGYDVHWYQQLPGTAPKLLIYGNTNRPSGVPDRFSGSKSGTSASLAITGLQAEDEADYYCQSYDISLSGWVFGGGTKLTVL

- % Inhibition, HEK Blue SEAP reporter assay [2]: 91%
- % Inhibition, HEK Blue SEAP reporter assay [3]: 89%
B11: mAb2.0 Fab (Fab, V domains shown)
VH: QLQLQESGPGLVKPSETLSLTCTVSGGSISTSSYYWGWIRQPPGKGLEWIGSIYYTGNTYYNPSLKSRVTISVDTSKNQFSLKLSSVTAADTAVYYCARVRYGVGVPRYFDPWGQGTLVTVSS
VL: QSVLTQPPSVSGAPGQRVTISCTGSSSNIGAHYDVHWYQQLPGTAPKLLIYGNDNRPSGVPDRFSGSKSGTSASLAITGLQAEDEADYYCQSYDYSLSGYVFGGGTKLTVL

- % Inhibition, HEK Blue SEAP reporter assay [1]: 84%
B12: mAb7.0 Fab (Fab, V domains shown)
VH: QVQLVESGGGVVQPGRSLRLSCAASGFTFSSYGMHWVRQAPGKGLEWVAVISYGGSERYYADSVKGRFTISRDNSKNTLYLQMNSLRAEDTAVYYCAREPWYSSRGWTGYGFDVWGQGTLVTVSS
VL: EIVLTQSPGTLSLSPGERATLSCRASQSVSSNYLAWYQQKPGQAPKLLIYSASSLQSGVPSRFSGSGSGTDFTLTISSLQPEDFATYYCQQTYSYPPTFGQGTKVEIK

- IC50, HEK Blue SEAP reporter assay [6]: 1.4 nM
B13: mAb7.0 IgG (antibody, V domains shown)
VH: QVQLVESGGGVVQPGRSLRLSCAASGFTFSSYGMHWVRQAPGKGLEWVAVISYGGSERYYADSVKGRFTISRDNSKNTLYLQMNSLRAEDTAVYYCAREPWYSSRGWTGYGFDVWGQGTLVTVSS
VL: EIVLTQSPGTLSLSPGERATLSCRASQSVSSNYLAWYQQKPGQAPKLLIYSASSLQSGVPSRFSGSGSGTDFTLTISSLQPEDFATYYCQQTYSYPPTFGQGTKVEIK

- fold lower potency than mAb6.0 IgG, HaCat IL-8 assay [7]: 16 fold
B14: mAb6.0_2.0 IgG (antibody, V domains shown)
VH: QLQLQESGPGLVKPSETLSLTCTVSGGSITSSNYYWGWIRQPPGKGLEWIGSIDYTGSTYYNPSLKSRVTISVDTSKNQFSLKLSSVTAADTAVYYCARGKYYETYLGFDVWGQGTLVTVSS
VL: QSVLTQPPSVSGAPGQRVTISCTGSSSNIGAHYDVHWYQQLPGTAPKLLIYGNDNRPSGVPDRFSGSKSGTSASLAITGLQAEDEADYYCQSYDYSLSGYVFGGGTKLTVLG
